PMC4962319

Biological target: TIA-1-GLuc1 (UniProt P31483)
Test: split reporter (BiFC, NanoBiT); split Gaussia luciferase protein-fragment complementation assay (PCA); GLuc1 and GLuc2 fusions coexpressed in live HEK293T cells, luminescence read 48 h after transfection with native coelenterazine

Chain of UniProt P31483 (P31483 whole entry, the tested form may be a part): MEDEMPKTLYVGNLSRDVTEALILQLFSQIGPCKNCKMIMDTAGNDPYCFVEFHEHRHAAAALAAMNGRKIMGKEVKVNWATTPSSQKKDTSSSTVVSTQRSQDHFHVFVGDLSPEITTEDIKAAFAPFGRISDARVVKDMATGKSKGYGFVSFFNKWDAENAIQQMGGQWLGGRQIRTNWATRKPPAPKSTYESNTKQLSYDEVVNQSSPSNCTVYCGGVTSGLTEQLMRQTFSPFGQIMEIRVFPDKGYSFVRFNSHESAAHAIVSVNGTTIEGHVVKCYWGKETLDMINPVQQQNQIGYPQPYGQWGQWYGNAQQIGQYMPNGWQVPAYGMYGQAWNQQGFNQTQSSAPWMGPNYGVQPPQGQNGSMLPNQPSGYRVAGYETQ

Substance: TauE14-GLuc2 (from UniProt P10636-6 1-383) (natural protein)
- fold of PCA interaction signal over wildtype Tau: > 6 fold
